{"source": "paper PMC9973331", "about": "“DNA Methylation and RNA-DNA Hybrids Regulate the Single-Molecule Localization of a DNA Methyltransferase on the Bacterial Nucleoid”", "key": {"DnmA[Y465A]": {"biological_target": "T1, DnmA[Y465A] (Bacillus subtilis, UniProt O31504 1-879, Y465A)", "T1 sequence": "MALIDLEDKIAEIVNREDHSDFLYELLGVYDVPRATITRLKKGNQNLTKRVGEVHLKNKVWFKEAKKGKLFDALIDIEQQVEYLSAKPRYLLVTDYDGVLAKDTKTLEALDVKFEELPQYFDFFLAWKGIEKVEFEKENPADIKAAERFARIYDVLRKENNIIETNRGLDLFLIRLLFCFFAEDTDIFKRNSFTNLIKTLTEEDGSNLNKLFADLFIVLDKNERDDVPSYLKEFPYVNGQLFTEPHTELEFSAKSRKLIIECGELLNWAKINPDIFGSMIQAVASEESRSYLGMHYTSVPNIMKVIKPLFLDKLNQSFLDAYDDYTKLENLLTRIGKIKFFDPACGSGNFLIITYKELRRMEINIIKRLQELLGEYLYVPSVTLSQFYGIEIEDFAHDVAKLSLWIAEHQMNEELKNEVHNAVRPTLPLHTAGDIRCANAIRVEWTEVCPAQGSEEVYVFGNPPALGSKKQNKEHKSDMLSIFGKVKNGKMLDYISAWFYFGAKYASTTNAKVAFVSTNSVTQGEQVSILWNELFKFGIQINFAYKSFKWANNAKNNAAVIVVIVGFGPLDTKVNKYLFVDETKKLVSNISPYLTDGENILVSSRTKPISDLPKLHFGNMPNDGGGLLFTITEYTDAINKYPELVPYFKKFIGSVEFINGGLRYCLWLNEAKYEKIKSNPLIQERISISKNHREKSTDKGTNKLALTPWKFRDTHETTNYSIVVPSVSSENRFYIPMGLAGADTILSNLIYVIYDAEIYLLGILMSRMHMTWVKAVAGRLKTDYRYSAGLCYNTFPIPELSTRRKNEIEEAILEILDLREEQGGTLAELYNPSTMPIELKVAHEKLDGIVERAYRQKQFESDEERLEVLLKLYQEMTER", "test": "EMSA; EMSA: 5x buffer 500 mM Tris-HCl pH 8, 1.25 M NaCl, 10% glycerol (1x: 100 mM Tris, 250 mM NaCl, 2% glycerol), 5 nM probe, 30 min at 25 C; 6% native PAGE in 1x TBE on ice", "conditions": "protein: recombinant; tags: His-SUMO tag (pE-SUMO) removed by SUMO protease; label: 5' IRDye700 on strand 1; 5' IRDye800 on strand 2; blunt"}, "DnmA[6AA*]": {"biological_target": "T2, DnmA[6AA*] (Bacillus subtilis, UniProt O31504 1-879, K470A;M620A;N748A;L780A;K781A;D783A)", "T2 sequence": "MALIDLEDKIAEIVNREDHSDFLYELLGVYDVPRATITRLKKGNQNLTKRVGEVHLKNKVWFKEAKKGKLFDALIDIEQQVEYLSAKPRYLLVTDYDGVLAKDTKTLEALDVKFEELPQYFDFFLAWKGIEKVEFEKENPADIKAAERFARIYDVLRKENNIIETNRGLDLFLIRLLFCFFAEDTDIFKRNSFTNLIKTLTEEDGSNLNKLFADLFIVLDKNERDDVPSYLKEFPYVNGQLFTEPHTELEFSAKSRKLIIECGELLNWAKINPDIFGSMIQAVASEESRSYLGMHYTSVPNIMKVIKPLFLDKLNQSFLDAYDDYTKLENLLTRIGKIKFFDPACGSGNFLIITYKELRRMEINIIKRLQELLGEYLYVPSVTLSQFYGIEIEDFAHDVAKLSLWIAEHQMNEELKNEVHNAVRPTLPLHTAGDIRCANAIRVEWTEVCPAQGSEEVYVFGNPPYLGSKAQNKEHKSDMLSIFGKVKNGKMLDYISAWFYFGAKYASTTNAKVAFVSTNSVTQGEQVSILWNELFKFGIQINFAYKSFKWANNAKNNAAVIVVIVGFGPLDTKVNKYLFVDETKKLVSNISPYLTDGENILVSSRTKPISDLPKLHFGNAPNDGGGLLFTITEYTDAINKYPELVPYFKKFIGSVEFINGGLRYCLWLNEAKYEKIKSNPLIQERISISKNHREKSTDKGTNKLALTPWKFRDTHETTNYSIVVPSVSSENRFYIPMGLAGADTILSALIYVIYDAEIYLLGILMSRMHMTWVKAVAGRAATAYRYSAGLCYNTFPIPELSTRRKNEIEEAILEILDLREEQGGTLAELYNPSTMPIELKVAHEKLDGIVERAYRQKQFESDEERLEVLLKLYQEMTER", "test": "EMSA; EMSA: 5x buffer 500 mM Tris-HCl pH 8, 1.25 M NaCl, 10% glycerol (1x: 100 mM Tris, 250 mM NaCl, 2% glycerol), 5 nM probe, 30 min at 25 C; 6% native PAGE in 1x TBE on ice", "conditions": "protein: recombinant; tags: His-SUMO tag (pE-SUMO) removed by SUMO protease; label: 5' IRDye700 on strand 1; 5' IRDye800 on strand 2; blunt"}}}
{"binder": "unmethylated dsDNA (oTMN67/oTMN68) (dsDNA) DNA 1: CAAAACAGGATATGAAATAGTATTGGACGAGAGCTTTTTGGTGGCTTATACTATAG DNA 2: CTATAGTATAAGCCACCAAAAAGCTCTCGTCCAATACTATTTCATATCCTGTTTTG", "values": [{"measurement": "apparent K (half saturation)", "setting": "DnmA[Y465A]", "result": "164 ± 26.8", "unit": "nM"}, {"measurement": "apparent K (half saturation)", "setting": "DnmA[6AA*]", "result": "458 ± 185", "unit": "nM"}]}
